For five variants, screen value results are on record in PMC10958042.

First the molecules themselves.
B1: ATGL (PNPLA2, patatin-like phospholipase domain-containing protein 2), human, full length / G0S2 (G0/G1 switch protein 2), human (parent)
chain 1: MFPREKTWNISFAGCGFLGVYYVGVASCLREHAPFLVANATHIYGASAGALTATALVTGVCLGEAGAKFIEVSKEARKRFLGPLHPSFNLVKIIRSFLLKVLPADSHEHASGRLGISLTRVSDGENVIISHFNSKDELIQANVCSGFIPVYCGLIPPSLQGVRYVDGGISDNLPLYELKNTITVSPFSGESDICPQDSSTNIHELRVTNTSIQFNLRNLYRLSKALFPPEPLVLREMCKQGYRDGLRFLQRNGLLNRPNPLLALPPARPHGPEDKDQAVESAQAEDYSQLPGEDHILEHLPARLNEALLEACVEPTDLLTTLSNMLPVRLATAMMVPYTLPLESALSFTIRLLEWLPDVPEDIRWMKEQTGSICQYLVMRAKRKLGRHLPSRLPEQVELRRVQSLPSVPLSCAAYREALPGWMRNNLSLGDALAKWEECQRQLLLGLFCTNVAFPPEALRMRAPADPAPAPADPASPQHQLAGPAPLLSTPAPEARPVIGALGL
chain 2: METVQELIPLAKEMMAQKRKGKMVKLYVLGSVLALFGVVLGLMETVCSPFTAARRLRDQEAAVAELQAALERQALQKQALQEKGKQQDTVLGGRALSNRQHAS

The variants in this experiment derive from B1. The experiment in a line: LUMIER: Protein A-ATGL variant and firefly luciferase-partner co-expressed in HEK293T, lysates immunoprecipitated on IgG-coated plates, co-precipitated partner measured as luciferase luminescence. As to conditions: with G0S2 (G0/G1 switch protein 2), transient co-transfection, IgG-coated LUMITRAC plates, 2 h at 4 °C, three PBS washes, Bright-Glo luciferase reagent, triplicates per assay, two …, scale: log2 fold change of co-immunoprecipitated luminescence relative to wild-type ATGL within each experiment.

As for chain 1 MFPREKTWNISFAGCGFLGVYYVGVASCLREHAPFLVANATHIYGASAGALTATALVTGVCLGEAGAKFIEVSKEARKRFLGPLHPSFNLVKIIRSFLLKVLPADSHEHASGRLGISLTRVSDGENVIISHFNSKDELIQANVCSGFIPVYCGLIPPELQGVRYVDGGISDNLPLYELKNTITVSPFSGESDICPQDSSTNIHELRVTNTSIQFNLRNLYRLSKALFPPEPLVLREMCKQGYRDGLRFLQRNGLLNRPNPLLALPPARPHGPEDKDQAVESAQAEDYSQLPGEDHILEHLPARLNEALLEACVEPTDLLTTLSNMLPVRLATAMMVPYTLPLESALSFTIRLLEWLPDVPEDIRWMKEQTGSICQYLVMRAKRKLGRHLPSRLPEQVELRRVQSLPSVPLSCAAYREALPGWMRNNLSLGDALAKWEECQRQLLLGLFCTNVAFPPEALRMRAPADPAPAPADPASPQHQLAGPAPLLSTPAPEARPVIGALGL [chain 1 S158E], the screen value is -0.0501 (parent: 0.26, not graded) and 0.0613 (parent: 0.56, not graded).
Consider chain 1 MFPREKTWNISFAGCGFLGVYYVGVASCLREHAPFLVANATHIYGASAGALTATALVTGVCLGEAGAKFIEVSKEARKRFLGPLHPSFNLVKIIRSFLLKVLPADSHEHASGRLGISLTRVSDGENVIISHFNSKDELIQANVCSGFIPVYCGLIPPSLQGVRYVDGGISDNLPLYELKNTITVSPFSGESDICPQDSSTNIHELRVTNTSIQFNLRNLYRLSKALFPPEPLVLREMCKQGYRDGLRFLQRNGLLNRPNPLLALPPARPHGPEDKDQAVESAQAEDYSQLPGEDHILEHLPARLNEALLEACVEPTDLLTTLSNMLPARLATAMMVPYTLPLESALSFTIRLLEWLPDVPEDIRWMKEQTGSICQYLVMRAKRKLGRHLPSRLPEQVELRRVQSLPSVPLSCAAYREALPGWMRNNLSLGDALAKWEECQRQLLLGLFCTNVAFPPEALRMRAPADPAPAPADPASPQHQLAGPAPLLSTPAPEARPVIGALGL [chain 1 V328A], for which the screen value reads like this: (parent: 0.26, not graded) -2.09; (parent: 0.56, not graded) -2.9.
On the same counts, the results for chain 1 MFPREKTWNISFAGCGFLGVYYVGVASCLREHAPFLVANATHIYGASAGALTATALVTGVCLGEAGAKFIEVSKEARKRFLGPLHPSFNLVKIIRSFLLKVLPADSHEHASGRLGISLTRVSDGENLIISHFNSKDELIQANVCSGFIPVYCGLIPPSLQGVRYVDGGISDNLPLYELKNTITVSPFSGESDICPQDSSTNIHELRVTNTSIQFNLRNLYRLSKALFPPEPLVLREMCKQGYRDGLRFLQRNGLLNRPNPLLALPPARPHGPEDKDQAVESAQAEDYSQLPGEDHILEHLPARLNEALLEACVEPTDLLTTLSNMLPVRLATAMMVPYTLPLESALSFTIRLLEWLPDVPEDIRWMKEQTGSICQYLVMRAKRKLGRHLPSRLPEQVELRRVQSLPSVPLSCAAYREALPGWMRNNLSLGDALAKWEECQRQLLLGLFCTNVAFPPEALRMRAPADPAPAPADPASPQHQLAGPAPLLSTPAPEARPVIGALGL [chain 1 V127L] are 0.199 and 0.376.
On the same counts, the results for chain 1 MFPREKTWNISFAGCGFLGVYYVGVASCLREHAPFLVANATHIYGASAGALTATALVTGVCLGEAGAKFIEVSKEARKRFLGPLHPSFNLVKIIRSFLLKVLPADSHEHASGRLGISLTRVSDGENVIISHFNSKDELIQANVCSGFIPVYCGLIPPSLQGVRYVDGGISDNLPLYELKNTITVSPFSGESDICPQDSSTNIHELRVTNTSIQFNLRNLYRLSKALFPPEPLVLREMCKQGYRDGLRFLQRNGLLNRPNPLLALPPARPHGPEDKDQAVESAQAEDYSQLPGEDHILEHLPARLNEALLEACVEPTDLLTTLSNMLPVRLATAMMVPYTLPLESALSFTIRLLEWLPDVPEDIRWMKEQTGSICQYLVMRAKRKLGRHLPSRLPEQVELRRVQSLPSVPLSCAAAREALPGWMRNNLSLGDALAKWEECQRQLLLGLFCTNVAFPPEALRMRAPADPAPAPADPASPQHQLAGPAPLLSTPAPEARPVIGALGL [chain 1 Y415A] are -0.00445 and -0.27.
As to chain 1 MFPREKTWNISFAGCGFLGVYYVGVASCLREHAPFLVANAAHIYGASAGALTATALVTGVCLGEAGAKFIEVSKEARKRFLGPLHPSFNLVKIIRSFLLKVLPADSHEHASGRLGISLTRVSDGENVIISHFNSKDELIQANVCSGFIPVYCGLIPPSLQGVRYVDGGISDNLPLYELKNTITVSPFSGESDICPQDSSTNIHELRVTNTSIQFNLRNLYRLSKALFPPEPLVLREMCKQGYRDGLRFLQRNGLLNRPNPLLALPPARPHGPEDKDQAVESAQAEDYSQLPGEDHILEHLPARLNEALLEACVEPTDLLTTLSNMLPVRLATAMMVPYTLPLESALSFTIRLLEWLPDVPEDIRWMKEQTGSICQYLVMRAKRKLGRHLPSRLPEQVELRRVQSLPSVPLSCAAYREALPGWMRNNLSLGDALAKWEECQRQLLLGLFCTNVAFPPEALRMRAPADPAPAPADPASPQHQLAGPAPLLSTPAPEARPVIGALGL [chain 1 T41A], the screen value worked out at 0.0368 (parent: 0.26, not graded) and 0.0587 (parent: 0.56, not graded).
